Results: patent US20090202526A1 (RINAT NEUROSCIENCE, published 2009)
Changes are numbered by the printed parent chain. Where “and” joins values, the source holds several entries; their conditions need not be identical. Identical values can stand only once. One block for each binder: values may come before it.

Key:
[1] = target: T1, Human trkC-Fc fusion protein (human, UniProt Q16288 32-429); experiment: BIAcore SPR
T1 construct: Immobilised on CM5 chip for BIAcore; also called htrkC; not shown: Fc part not described

[2] = target: Rat trkC on trigeminal neurons (rat, UniProt Q03351 32-864); experiment: cell-based or functional assay
Human trkC (KIRA assay) [3] = target: T2, Human trkC (KIRA assay) (human, UniProt Q16288 32-839, limits assumed); experiment: cell-based or functional assay
[4] = target: T1, Human trkC-Fc fusion protein; experiment: BIAcore SPR, Fab on human trkC
Description: (§1) Affinities of anti-trkC Fabs and monoclonal antibodies were determined using the BIAcore 3000™ surface plasmon resonance (SPR) system (BIAcore, INC, Piscaway N.J.). CM5 chips were activated with N-ethyl-N′-(3-dimethylaminopropyl)-carbodiimide hydrochloride (EDC) and N-hydroxysuccinimide (NHS) according to the supplier's instructions. Human or rat trkC-Fc fusion protein was diluted into 10 mM sodium acetate pH 5.0 and injected over the activated chip at a concentration of 0.005 mg/mL. Using variable flow time across the individual chip channels, two ranges of antigen density were achieved: 200-400 response units (RU) for detailed kinetic studies and 500-1000 RU for screening assays. The chip was blocked with ethanolamine. […] HBS-EP buffer (0.01M HEPES, pH 7.4, 0.15 NaCl, 3 mM EDTA, 0.005% Surfactant P20) was used as running buffer for all the BIAcore assays. […] The concentrations of the Fab proteins are determined by ELISA and/or SDS-PAGE electrophoresis using a Fab of known concentration (as determined by amino acid analysis) as a standard. Kinetic association rates (kₒₙ) and dissociation rates (koff) are obtained simultaneously by fitting the data to a 1:1 Langmuir binding model (Karlsson, R. Roos, H. Fagerstam, L. Petersson, B. (1994). Methods Enzymology 6. 99-110) using the BlAevaluation program. Equilibrium dissociation constant (KD) values are calculated as koff/kₒₙ.
(§2) We prepared antibody clones bearing the CDR and/or framework region substitution mutations shown in Table 1 and determine KD and other kinetic parameters using BIAcore analysis as described herein.

[5] = target: T1, Human trkC-Fc fusion protein; experiment: BIAcore SPR; value used in the footnote to calculate KD of the mutants
Rat trkA = target: T3, Rat trkA (rat, UniProt P35739 33-418, limits assumed); experiment: BIAcore SPR
T3 construct: BIAcore essentially as for trkC; construct not described

Human trkA = target: T4, Human trkA (human, UniProt P04629 33-423, limits assumed); experiment: BIAcore SPR
T4 construct: BIAcore essentially as for trkC; construct not described

Human trkB = target: T5, Human trkB (human, UniProt Q16620 32-430, limits assumed); experiment: BIAcore SPR
T5 construct: BIAcore essentially as for trkC; construct not described

Rat trkB = target: T6, Rat trkB (rat, UniProt Q63604 32-429, limits assumed); experiment: BIAcore SPR
T6 construct: BIAcore essentially as for trkC; construct not described

Human trkC (KIRA assay) [6] = target: T2, Human trkC (KIRA assay); experiment: cell-based or functional assay; remark: listed apart in the source
[7] = target: T1, Human trkC-Fc fusion protein; experiment: BIAcore SPR, Fab over immobilised human trkC-Fc
Description: as §1, §2

[8] = target: T1, Human trkC-Fc fusion protein; experiment: BIAcore SPR, human trkC-Fc on chip; KD calculated from koff with 2256 kon 5E5 1/Ms
[9] = target: T7, Rat trkC-Fc fusion protein (rat, UniProt Q03351 32-429); experiment: BIAcore SPR, Fab over immobilised rat trkC-Fc
T7 construct: Immobilised on CM5 chip for BIAcore; not shown: Fc part not described
Description: as §1

T2 sequence (Q16288 32-839 limits assumed): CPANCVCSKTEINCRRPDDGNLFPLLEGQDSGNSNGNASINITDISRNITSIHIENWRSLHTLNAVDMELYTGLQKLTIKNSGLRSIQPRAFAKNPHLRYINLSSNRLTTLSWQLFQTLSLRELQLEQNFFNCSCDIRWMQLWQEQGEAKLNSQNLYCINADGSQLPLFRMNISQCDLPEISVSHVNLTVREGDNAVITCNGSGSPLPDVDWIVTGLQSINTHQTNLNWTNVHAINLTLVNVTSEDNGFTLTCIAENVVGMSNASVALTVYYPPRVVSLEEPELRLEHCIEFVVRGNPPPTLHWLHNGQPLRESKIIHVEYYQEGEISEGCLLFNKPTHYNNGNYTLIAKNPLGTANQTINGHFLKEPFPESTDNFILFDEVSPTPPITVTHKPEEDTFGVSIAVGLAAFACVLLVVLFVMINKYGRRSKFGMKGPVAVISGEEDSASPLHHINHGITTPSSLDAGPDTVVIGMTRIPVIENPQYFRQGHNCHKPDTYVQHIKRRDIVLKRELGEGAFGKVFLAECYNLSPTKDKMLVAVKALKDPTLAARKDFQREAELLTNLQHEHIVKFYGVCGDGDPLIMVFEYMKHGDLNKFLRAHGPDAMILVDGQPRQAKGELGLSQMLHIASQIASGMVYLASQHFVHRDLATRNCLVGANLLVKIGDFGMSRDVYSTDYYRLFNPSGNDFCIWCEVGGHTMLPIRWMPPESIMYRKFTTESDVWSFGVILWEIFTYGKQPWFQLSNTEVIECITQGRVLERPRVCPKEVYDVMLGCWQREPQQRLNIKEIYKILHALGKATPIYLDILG
Sequence of Rat trkC on trigeminal neurons (Q03351 32-864): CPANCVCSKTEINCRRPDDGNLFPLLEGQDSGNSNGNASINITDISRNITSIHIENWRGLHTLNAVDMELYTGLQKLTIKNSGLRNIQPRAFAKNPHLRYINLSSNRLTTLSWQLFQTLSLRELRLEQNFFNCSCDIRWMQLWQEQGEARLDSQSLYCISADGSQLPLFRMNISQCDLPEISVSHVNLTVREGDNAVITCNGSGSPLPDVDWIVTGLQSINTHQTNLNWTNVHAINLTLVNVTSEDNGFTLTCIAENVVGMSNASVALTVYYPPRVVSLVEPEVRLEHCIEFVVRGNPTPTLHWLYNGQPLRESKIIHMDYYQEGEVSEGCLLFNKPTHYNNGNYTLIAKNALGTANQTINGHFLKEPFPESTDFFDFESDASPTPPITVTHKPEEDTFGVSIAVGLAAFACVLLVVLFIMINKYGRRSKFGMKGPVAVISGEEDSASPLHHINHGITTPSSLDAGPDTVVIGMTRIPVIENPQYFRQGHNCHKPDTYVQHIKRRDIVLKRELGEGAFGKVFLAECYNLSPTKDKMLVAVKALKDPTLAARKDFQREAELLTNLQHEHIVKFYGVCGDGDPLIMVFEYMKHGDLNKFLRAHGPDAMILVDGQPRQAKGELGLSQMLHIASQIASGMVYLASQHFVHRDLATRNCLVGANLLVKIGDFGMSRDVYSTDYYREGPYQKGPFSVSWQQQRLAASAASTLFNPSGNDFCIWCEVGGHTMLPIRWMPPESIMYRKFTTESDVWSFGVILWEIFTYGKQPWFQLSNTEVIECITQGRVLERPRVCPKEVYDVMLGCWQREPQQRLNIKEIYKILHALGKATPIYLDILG
T3 sequence (P35739 33-418 limits assumed): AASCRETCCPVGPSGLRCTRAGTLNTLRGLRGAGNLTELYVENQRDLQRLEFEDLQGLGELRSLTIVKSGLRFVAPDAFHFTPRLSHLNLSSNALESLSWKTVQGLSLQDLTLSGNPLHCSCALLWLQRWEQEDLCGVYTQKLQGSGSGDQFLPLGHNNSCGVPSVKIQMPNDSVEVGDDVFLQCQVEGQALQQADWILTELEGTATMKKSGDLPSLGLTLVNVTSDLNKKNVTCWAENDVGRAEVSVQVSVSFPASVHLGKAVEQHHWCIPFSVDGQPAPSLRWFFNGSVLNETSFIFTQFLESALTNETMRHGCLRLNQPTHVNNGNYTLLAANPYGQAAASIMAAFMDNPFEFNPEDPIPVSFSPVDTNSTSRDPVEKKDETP
T5 sequence (Q16620 32-430 limits assumed): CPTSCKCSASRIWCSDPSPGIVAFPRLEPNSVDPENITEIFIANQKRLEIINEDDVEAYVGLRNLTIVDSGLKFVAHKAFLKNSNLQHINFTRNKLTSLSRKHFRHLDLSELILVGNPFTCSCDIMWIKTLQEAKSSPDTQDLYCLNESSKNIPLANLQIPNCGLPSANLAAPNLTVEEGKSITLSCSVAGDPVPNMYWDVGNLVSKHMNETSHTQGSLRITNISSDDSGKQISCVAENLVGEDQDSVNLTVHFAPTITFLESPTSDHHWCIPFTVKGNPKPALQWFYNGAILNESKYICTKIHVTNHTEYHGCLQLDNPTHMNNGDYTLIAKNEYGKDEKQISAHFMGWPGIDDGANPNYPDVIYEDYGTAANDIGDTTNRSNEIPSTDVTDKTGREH
T4 sequence (P04629 33-423 limits assumed): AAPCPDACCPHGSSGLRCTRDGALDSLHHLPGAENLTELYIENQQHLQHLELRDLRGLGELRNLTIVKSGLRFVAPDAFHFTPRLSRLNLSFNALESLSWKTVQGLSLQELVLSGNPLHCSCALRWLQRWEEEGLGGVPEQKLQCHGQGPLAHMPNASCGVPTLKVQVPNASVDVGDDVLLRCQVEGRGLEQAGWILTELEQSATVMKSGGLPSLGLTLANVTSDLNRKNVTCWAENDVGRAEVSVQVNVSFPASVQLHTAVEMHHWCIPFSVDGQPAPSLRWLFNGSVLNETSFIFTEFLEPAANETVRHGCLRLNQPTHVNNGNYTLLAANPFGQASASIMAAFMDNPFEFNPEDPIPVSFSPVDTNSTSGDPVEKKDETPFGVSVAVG
T6 sequence (Q63604 32-429 limits assumed): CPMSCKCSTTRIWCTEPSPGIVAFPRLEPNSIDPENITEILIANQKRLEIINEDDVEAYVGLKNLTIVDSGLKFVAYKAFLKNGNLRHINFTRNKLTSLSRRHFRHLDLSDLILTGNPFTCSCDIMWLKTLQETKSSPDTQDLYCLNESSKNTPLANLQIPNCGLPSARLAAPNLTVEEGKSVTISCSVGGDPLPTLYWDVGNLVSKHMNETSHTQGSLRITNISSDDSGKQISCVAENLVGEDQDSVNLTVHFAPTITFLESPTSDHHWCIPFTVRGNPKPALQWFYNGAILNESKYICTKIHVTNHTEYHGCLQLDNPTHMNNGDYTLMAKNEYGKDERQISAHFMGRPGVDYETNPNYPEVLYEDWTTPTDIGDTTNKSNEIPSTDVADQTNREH

B2: Fab 2256 (parent) (Fab, V domains shown)
VH: QVQLQQPGAELVKPGASVKLSCKASGYTFTSYWMHWVKQRPGQGLEWIGEIYPSNGRTNYNEKFKSKATLTVDKSSSTAYMQLSSLTSEDSAVYYCARKYYYGNSYRSWYFDVWGAGTTLTVS
VL: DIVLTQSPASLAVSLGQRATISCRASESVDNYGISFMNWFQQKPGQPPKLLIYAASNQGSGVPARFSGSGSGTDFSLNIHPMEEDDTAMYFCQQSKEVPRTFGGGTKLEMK
Kd [4]: 40 nM
koff [4]: 0.02 s⁻¹
kon [5]: 500000 M⁻¹ s⁻¹

B4: Fab clone 129(T8)(H8xE10)(10B) (Fab, V domains shown)
VH: QVQLVQSGAEVKKPGASVKVSCKASGYTFTSYRIHWVRQAPGQGLEWMGEIYPSNSRTNYNEKFKSRVTMTRDTSTSTVYMELSSLRSEDTAVYYCARKYYYGNSRRSWYFDVWGQGTTVTVS
VL: DIQMTQSPSSLSASVGDRVTITCRASESIDNYGISFLAWYQQKPGKAPKLLIYAASNRGSGVPSRFSGSGSGTDFTFTISSLQPEDIATYYCQQSKTVPRTFGQGTKLEIKR
koff [7]: 0.0008 s⁻¹
Kd [8]: 1.6 nM
koff [9]: 0.01 s⁻¹

B5: Fab A5, clone 129(T8)(H8xE10)(10B)(A5) (Fab, V domains shown)
VH: B4 VH with S56A, S105T
VL: B4 VL
notes: purified on Ni-NTA; also called A5 (Fab)
Kd [4]: 0.28 nM
koff [4]: 0.00037 s⁻¹
Kd [7]: 0.28 nM
koff [7]: 0.00037 s⁻¹
kon [7]: 1.3e+06 M⁻¹ s⁻¹
fold improvement of affinity over parent antibody 2256 [1]: 200 fold
Kd [9]: 19 nM
koff [9]: 0.0267 s⁻¹
kon [9]: 1.3e+06 M⁻¹ s⁻¹

B6: Fab clone 129(T8)(H8xE10) (Fab, V domains shown)
VH: B4 VH with V68A, R72G, T74K
VL: B4 VL
koff [7]: 0.001 s⁻¹
Kd [8]: 2 nM
koff [9]: 0.09 s⁻¹

B7: Fab clone 129(T8)(H8xE10)(4B) (Fab, V domains shown)
VH: B4 VH with R72G
VL: B4 VL
koff [7]: 0.002 s⁻¹
Kd [8]: 4 nM
koff [9]: 0.0289 s⁻¹ and 0.0627 s⁻¹

Now from value to binder, other results behind:

Kd [1]: ~62 nM
EC50, KIRA assay (Human trkC (KIRA assay) [3]): ~40 nM
B1: Mouse monoclonal agonist anti-trkC antibody 2256 (antibody, V domains shown)
VH: B2 VH
VL: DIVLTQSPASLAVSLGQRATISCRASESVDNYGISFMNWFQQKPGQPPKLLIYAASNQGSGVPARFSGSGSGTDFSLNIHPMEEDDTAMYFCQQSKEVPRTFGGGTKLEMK
notes: Mouse monoclonal antibody
EC50, rat trigeminal neuron survival assay [2]: ~5 nM

binding result (Rat trkA): no binding
binding result (Human trkA): no binding
binding result (Human trkB): no binding
binding result (Rat trkB): no binding
EC50 (read off the curve), KIRA (Human trkC (KIRA assay) [6]): ~0.1 nM
B3: Antibody A5, full IgG (antibody, V domains shown)
VH: QVQLVQSGAEVKKPGASVKVSCKASGYTFTSYRIHWVRQAPGQGLEWMGEIYPSNARTNYNEKFKSRVTMTRDTSTSTVYMELSSLRSEDTAVYYCARKYYYGNTRRSWYFDVWGQGTTVTVSS
VL: B4 VL
EC50, neuron survival [2]: 1 pM
